Experimental data reported in the supplement of paper PMC9170038.

Tested on: MS2 coat protein
Experiment: apparent KD of MS2 coat protein; designed switch direction (-1 OFF switch, 1 ON switch): 1; higher = weaker reporter binding
Method in brief: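 The reported apparent KD is a per-design median over clusters, from curve fits of normalised cluster fluorescence. Protein titrations used SNAP-549-labelled MS2 coat protein, doubled from 0.7 or 1.5 nM to 3 µM, in Tris-HCl pH 7.5 buffer with KCl, MgCl2, BSA, DTT, tRNA and Tween-20, with no input, 200 uM small-molecule ligand, or an oligonucleotide input. The RNA switches were transcribed on Illumina chips by stalled E. coli RNA polymerase.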

[1] = Eterna round: R95, input ligand: FMN 200 uM
[2] = Eterna round: R95, input ligand: microRNA oligo, concentration not stated
[3] = Eterna round: R95, input ligand: none
[4] = input ligand: microRNA oligo, concentration not stated

Row | Sequence | apparent KD of MS2 coat protein [1] [nM] | apparent KD of MS2 coat protein [2] [nM] | apparent KD of MS2 coat protein [3] [nM] | apparent KD of MS2 coat protein (input ligand: FMN 200 uM) [nM] | apparent KD of MS2 coat protein [4] [nM] | apparent KD of MS2 coat protein (input ligand: none) [nM]
1 | AGUCCAGCCUGAGCUGGACAAAAGCAUGUACAUGAGGAUCACCCAUGUCAUGUACAAGCUUUUUGCUCGUUUUAAAA [Zipper 46 - 13] (puzzle: Sensor for hsa-mir-208a) | 477 | 12.9 | 1010 |  |  | 
2 | GGCGAACAGGCUAACAUGAGGAUCACCCAUGUGGACUUCGUGUAGGAUAUCGGGAAGGAGGAAACCGAGAAGGGCAAAGAAGCC [AK SSNG3-V2-49] (Eterna round: R96, puzzle: Same State NG 3) |  |  |  | 195 | 88.2 | 93.7
3 | GGUACCAACACAGGAUAUGCUAUCCUUUGGGUAGCAGAAGGGUGAAACAUGAGGAUCACCCAUGUGGUGCCAGGGCGUGAGCCC [JL SSNG1 1.93] (Eterna round: R96, puzzle: Same State NG 1) |  |  |  | 108 | 854 | 2190
4 | GGAUGACGGACAGGAUAUUGGUGCUAAUGGUGUCAAGAAGGGUCUUCGAUAUAUACGACCAGUUACAUGAGGAUCACCCAUGUU [JR_SSNG1_Sub034] (Eterna round: R96, puzzle: Same State NG 1) |  |  |  | 20.2 | 30.5 | 40
5 | GCGCAGCUGAGUGAGGAUAUCGGUGGUAAAACAUGAGGAUCACCCAUGUCCGAAGCUCGGACUUCCGAGAAGGCACCCGGCUGCA [Inisusbeor] (puzzle: Same State 2) | 11.9 | 47.4 | 73.5 |  |  | 
6 | CAAGAAAACGCAGGAUAUACCCGGACAACCCGGGUAGAAGGGUGACACAUGAGGAUCACCCAUGUACAUGGCAAUAACCAUGGA [Sobiais] (Eterna round: R96, puzzle: Same State NG 1) |  |  |  | 15.2 | 10.7 | 35.4
7 | AAGAUGGUUGUAGGAUAUCCACCACUGAAGGGUGGAGAAGGGCACUCCAACAUGAGGAUCACCCAUGUACUACAAGUAGCAUCG [Eternabot solution 26] (Eterna round: R96, puzzle: Same State NG 1) |  |  |  | 267 | 188 | 240
8 | UGGCUCAGAGCAGGAUAUAUGUCUCGAGCUUCGGCUCGAGACAUGAGGAUCACCCAUGUAAUAACAUAGAAGGGCUCUGAGCCA [SSNG2/1-B2] (Eterna round: R96, puzzle: Same State NG 2) |  |  |  | 16.3 | 41.7 | 74.7
9 | UCUUGGUUUUUGCUCGUUUUUUGUGUUGAACAUGAGGAUCACCCAUGUAUUGUACGGUCCAAUUUAAUAAUAAUCCA [JMF 74] (puzzle: Sensor for hsa-mir-208a) | 59 | 57.1 | 82.1 |  |  | 
10 | GUAGAAUAACUAGAGGAUAUCCGAGUGGUAACAUGAGGAUCACCCAUGUGAUGAAAGGAACAUGAGGAGAAGGCUAGAAUGAAUG [Mat - Same State 2 - Mod of JL - D84] (puzzle: Same State 2) | 23.4 | 38.4 | 88.3 |  |  | 
11 | GCUAGAAAUAAAGCCAACAUGAGGAUCACCCAUGUAUGUUGGCAGGAUAUCGUUUGCUUUGCAAACGAGAAGGGCCAAACUAGC [Mat - Same State NG 3 - JL Mod - D1] (Eterna round: R96, puzzle: Same State NG 3) |  |  |  | 57 | 127 | 129
12 | AGUCCAGCCUGAGCUGGACAAAAGCAUGUACAUGAGGAUCACCCAUGUCAUGUACAAGCUUUUUGCUCGUCUUAAAA [JL zipper 46] (Eterna round: R96, puzzle: Sensor for hsa-mir-208a) |  |  |  | 685 | 13 | 677
13 | AAGAAACAUGAGGAUCACCCAUGUGAGAAUAUGGGAGGAUAUACAAGGACGUAAGUCAAGGUAGAAGGCCUAAGAA [Mat - Same State 1 - Meechl mod - D139] (Eterna round: R96, puzzle: Same State 1) |  |  |  |  | 143 | 
14 | UAGAGAGGAAGCGAGGAUAUCGUGGGAGGAACAUGAGGAUCACCCAUGUGUGAUGUUGAGAGGGACGAGAAGGCGCGGGAAAUUA [JR_SS2_Sub080] (puzzle: Same State 2) | 176 | 160 | 175 |  |  | 
15 | UGUCCAGCCUGAGCUGGACAAAAGCAUGUACAUGAGGAUCACCCAUGUUCAUGUACAAGCUUUUUGCUCGUCUUAAA [salish99_208a_r3_030] (puzzle: Sensor for hsa-mir-208a) | 325 | 14.7 | 370 |  |  | 
16 | AGAGCCGGCACUGAGGAUAUUCAUAUUAAAACAUGAGGAUCACCCAUGUAGGCCAGAAGGCCUUGGGAGAAGGCAGGUCGGCUCU [Mat - Same State 2 - Mod of UCT - D61] (Eterna round: R96, puzzle: Same State 2) |  |  |  | 18.7 | 201 | 366

Row | Sequence | apparent KD of MS2 coat protein [1] [nM] | apparent KD of MS2 coat protein [2] [nM] | apparent KD of MS2 coat protein [3] [nM] | apparent KD of MS2 coat protein (input ligand: FMN 200 uM) [nM] | apparent KD of MS2 coat protein [4] [nM] | apparent KD of MS2 coat protein (input ligand: none) [nM]
17 | GAGAGAGGAAGCGAGGAUAUCGUGUUGAGUACAUGAGGAUCACCCAUGUUGUAGGUAGAGGUAGGCGAGAAGGCGCAGGAGAGGU [JR_SS2_Sub098] (puzzle: Same State 2) | 106 | 48.8 | 122 |  |  | 
18 | GGCGAACAGGCCGACAUGAGGAUCACCCAUGUGGCCUCAUGUCAGGAUAUCGGGAAGGAGGAAACCGAGAAGGGACGGUGAGCC [AK SSNG3-V2-44] (Eterna round: R96, puzzle: Same State NG 3) |  |  |  | 88.9 | 5.6 | 65.1
19 | AGAGCCGGCACUGAGGAUAUUCAUAUUAAAACAUGAGGAUCACCCAUGUAGGCCAGAAGGCCUUGGGAGAAGGCAGGUCGGCUCU [Mat - Same State 2 - Mod of UCT - D61] (puzzle: Same State 2) | 22.3 | 211 | 507 |  |  | 
20 | GUGGCCUAGGCACAGGAUAUGUUGCUCGUAACAUGAGGAUCACCCAUGUGCCUAUGAGAUUUAAUGCAGAAGGGUGCACGCCACG [Edbeso] (Eterna round: R96, puzzle: Same State 2) |  |  |  | 14.3 | 123 | 139
21 | UUGGUUGUCGUAGGAUAUGUAGGAUAUGCCUACAUGAGGAUCACCCAUGUUCGCAUGGCAGAAGGACAGAAGGACGAUGACCAU [pwkr ssNG2 2FMN + 1F5.19] (Eterna round: R96, puzzle: Same State NG 2) |  |  |  | 13 | 20.5 | 50.2
22 | GUUACAUGAGGAUCACCCAUGUAUGUGUGGGAGUAAGUGUCUUAGGAUAUCUGUUAUUUUAUUUAAGAGAAGGAAGAUUGUUGU [JMF's solution 39] (Eterna round: R96, puzzle: Same State NG 3) |  |  |  | 133 | 68.9 | 80.7
23 | CGUUCUUACUCGGUACGGUGAGUAGAGGAACAUGAGGAUCACCCAUGUUUGAGCUUUUUGCUCGUGAUUAACAGUUG [JR_SHM208a_Sub015] (puzzle: Sensor for hsa-mir-208a) | 92.2 | 102 | 149 |  |  | 
24 | GUUACAUGAGGAUCACCCAUGUAUGUGUGGGAGUAAGUGUCUUAGGAUAUCUAGUAUUUAAUGUAAGAGAAGGAAGAUUGUUGU [JMF's solution 64] (Eterna round: R96, puzzle: Same State NG 3) |  |  |  | 130 | 106 | 96.1
25 | UCAAGCGAGAGGCUCGUCUUAUGUUUGGUACAUGAGGAUCACCCAUGUUAGGGACGAUUUAGUUAGAUGGAAUUUUG [JR_SHM208A_Sub035] (puzzle: Sensor for hsa-mir-208a) | 48.5 | 269 | 65.7 |  |  | 
26 | GUAGCAUACCGAGGAUAUUCAUAUUAAAUACAUGAGGAUCACCCAUGUAAGGCCAAAAGGCCUUGGGAGAAGGCGGAAUGCUAC [Xeonanis - 20 Mod3] (Eterna round: R96, puzzle: Same State NG 2) |  |  |  | 20.7 | 32.5 | 67.3
27 | UUUAGUUGCGGGCAGGAUAUGUAUUAAAAUACAUGAGGAUCACCCAUGUGAGGCCGAAAAGGCCUACAGAAGGGCCAAUCGCGAC [Laonerce - 22] (puzzle: Same State 2) | 19.7 | 49.4 | 63 |  |  | 
28 | GCCGGCUGGUGAGGAUAUGGCACCUUAUUGGUGCCAGAAGGCAUGUCAAUUGACAUGAGGAUCACCCAUGUAUUGUCGUUGGCG [salish99_SSNG1_r04_608] (Eterna round: R96, puzzle: Same State NG 1) |  |  |  | 819 | 194 | 399
29 | CAAACUUAGUAGGGUAGGUACCCAGGAUGACAUGAGGAUCACCCAUGUAAGAGCUUUUUGCUCGUCAUUAACAGUUG [JR_SHM208a_Sub018] (puzzle: Sensor for hsa-mir-208a) | 57.5 | 102 | 74.5 |  |  | 
30 | AUAAGUUUGAUGCUCGUCUCUCCGUACAAACAUGAGGAUCACCCAUGUGGUCGGGAAGUAGCCCGGCCGGUAUGGCC [Atusri] (puzzle: Sensor for hsa-mir-208a) | 16.7 | 14.1 | 15.8 |  |  | 
31 | CUUUUUAAUGCAGGAUAUGAUCAACAUGAGGAUCACCCAUGUGGCGUUGUGAGUAGGGAGAGUGAUCAGAAGGGCGUCUCCUCG [SS-NG2-LRO09] (Eterna round: R96, puzzle: Same State NG 2) |  |  |  | 43.9 | 38 | 56.6
